Test results as given in the supplement of paper PMC9112550, “Optimization of the antimicrobial peptide Bac7 by deep mutational scanning” (BMC Biology, 2022).

System: Escherichia coli TOP10
Assay: shrunken log2 fold change of peptide-encoding DNA abundance (4.5 h post-induction vs induction); higher = less antimicrobial activity (less host growth inhibition)
Details: time post-induction: 4.5 h; library: site-saturation at positions 5, 18, 19, 20
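Further: peptides expressed intracellularly from a pBAD plasmid library in pooled LB shake-flask culture, induced with 0.3% L-arabinose, DNA abundance read by NGS, three biological replicates, DESeq2 with apeglm shrinkage.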

| Sequence | shrunken log2 fold change |
| --- | --- |
| RRIRGRPPRLPRPRPRPINSPRP | 0.134 |
| RRIRSRPPRLPRPRPRPSENPRP | -0.113 |
| RRIRIRPPRLPRPRPRPNPAPRP | 0.0171 |
| RRIRSRPPRLPRPRPRPDFHPRP | -0.751 |
| RRIRDRPPRLPRPRPRPSSSPRP | 0.135 |
| RRIRARPPRLPRPRPRPSRGPRP | 0.497 |
| RRIRTRPPRLPRPRPRPYICPRP | -0.143 |
| RRIRNRPPRLPRPRPRPNDMPRP | -0.457 |
| RRIRYRPPRLPRPRPRPGQEPRP | -0.0317 |
| RRIRVRPPRLPRPRPRPIEKPRP | 0.0502 |
| RRIRYRPPRLPRPRPRPCFKPRP | -0.328 |
| RRIRWRPPRLPRPRPRPRWEPRP | 0.238 |
| RRIRERPPRLPRPRPRPRWEPRP | 0.0891 |
| RRIRARPPRLPRPRPRPFLSPRP | -0.107 |
| RRIRKRPPRLPRPRPRPPTIPRP | 0.119 |
| RRIRMRPPRLPRPRPRPIGGPRP | 0.0689 |
| RRIRIRPPRLPRPRPRPAPSPRP | 0.444 |
| RRIRFRPPRLPRPRPRPQYRPRP | -0.171 |
| RRIRTRPPRLPRPRPRPMCQPRP | -0.0075 |
| RRIRSRPPRLPRPRPRPNPWPRP | -0.0604 |
| RRIRDRPPRLPRPRPRPGIWPRP | 0.252 |
| RRIRNRPPRLPRPRPRPPIHPRP | -0.582 |
| RRIRCRPPRLPRPRPRPFMEPRP | -0.996 |
| RRIRQRPPRLPRPRPRPSNYPRP | -0.0943 |
| RRIRERPPRLPRPRPRPAGEPRP | 0.0657 |

| Sequence | shrunken log2 fold change |
| --- | --- |
| RRIRDRPPRLPRPRPRPGDFPRP | -0.017 |
| RRIRIRPPRLPRPRPRPETAPRP | 0.0478 |
| RRIRIRPPRLPRPRPRPIEPPRP | 0.0377 |
| RRIRERPPRLPRPRPRPSVVPRP | -0.213 |
| RRIRLRPPRLPRPRPRPRLFPRP | 0.17 |
| RRIRIRPPRLPRPRPRPRIPPRP | -0.324 |
| RRIRNRPPRLPRPRPRPLNVPRP | -0.0912 |
| RRIRGRPPRLPRPRPRPWFFPRP | 0.169 |
| RRIRIRPPRLPRPRPRPTRDPRP | -0.0265 |
| RRIRNRPPRLPRPRPRPQNGPRP | 0.00902 |
| RRIRKRPPRLPRPRPRPFISPRP | -0.113 |
| RRIRGRPPRLPRPRPRPFEHPRP | 0.212 |
| RRIRCRPPRLPRPRPRPYYQPRP | -1.14 |
| RRIRERPPRLPRPRPRPNFPPRP | -0.169 |
| RRIRERPPRLPRPRPRPMCHPRP | 0.0346 |
| RRIRTRPPRLPRPRPRPVAIPRP | -0.168 |
| RRIRKRPPRLPRPRPRPIFYPRP | -0.0532 |
| RRIRPRPPRLPRPRPRPTLGPRP | 0.564 |
| RRIRTRPPRLPRPRPRPPPKPRP | 0.82 |
| RRIRPRPPRLPRPRPRPRHPPRP | 0.357 |
| RRIRRRPPRLPRPRPRPIEGPRP | 0.0101 |
| RRIRTRPPRLPRPRPRPRMCPRP | 0.00183 |
| RRIRGRPPRLPRPRPRPVSSPRP | 0.0973 |
| RRIRNRPPRLPRPRPRPCHAPRP | -0.37 |
| RRIRCRPPRLPRPRPRPMETPRP | -0.0136 |

| Sequence | shrunken log2 fold change |
| --- | --- |
| RRIRMRPPRLPRPRPRPKAHPRP | 0.892 |
| RRIRTRPPRLPRPRPRPNCIPRP | -0.288 |
| RRIRQRPPRLPRPRPRPRSTPRP | 0.203 |
| RRIRWRPPRLPRPRPRPGGNPRP | 0.0972 |
| RRIRARPPRLPRPRPRPRTHPRP | 0.259 |
| RRIRGRPPRLPRPRPRPCVIPRP | 0.033 |
| RRIRPRPPRLPRPRPRPVILPRP | -0.26 |
| RRIRGRPPRLPRPRPRPGVDPRP | 0.951 |
| RRIRPRPPRLPRPRPRPDGNPRP | 0.0274 |
| RRIRHRPPRLPRPRPRPPEQPRP | -0.000687 |
| RRIRCRPPRLPRPRPRPWHCPRP | -0.0285 |
| RRIRKRPPRLPRPRPRPIPDPRP | 0.2 |
| RRIRPRPPRLPRPRPRPDNFPRP | -1.15 |
| RRIRQRPPRLPRPRPRPAKQPRP | 0.0569 |
| RRIRTRPPRLPRPRPRPFYYPRP | -0.55 |
| RRIRARPPRLPRPRPRPHRDPRP | 0.0774 |
| RRIRERPPRLPRPRPRPHFPPRP | -0.151 |
| RRIRKRPPRLPRPRPRPVSHPRP | 0.0254 |
| RRIRFRPPRLPRPRPRPGITPRP | -0.45 |
| RRIRERPPRLPRPRPRPIRLPRP | -0.0614 |
| RRIRTRPPRLPRPRPRPIMDPRP | -0.233 |
| RRIRARPPRLPRPRPRPFTNPRP | -0.273 |
| RRIRHRPPRLPRPRPRPHSKPRP | -0.32 |
| RRIRDRPPRLPRPRPRPMHRPRP | -0.0439 |
| RRIRLRPPRLPRPRPRPIWVPRP | -0.0362 |

| Sequence | shrunken log2 fold change |
| --- | --- |
| RRIRPRPPRLPRPRPRPGHVPRP | 0.564 |
| RRIRNRPPRLPRPRPRPCLEPRP | 0.000258 |
| RRIRQRPPRLPRPRPRPQCIPRP | -0.0582 |
| RRIRTRPPRLPRPRPRPQCPPRP | -0.125 |
| RRIRQRPPRLPRPRPRPDLDPRP | 0.0552 |
| RRIRGRPPRLPRPRPRPTASPRP | 1.49 |
| RRIRPRPPRLPRPRPRPRLRPRP | 0.458 |
| RRIRRRPPRLPRPRPRPNDYPRP | -0.407 |
| RRIRNRPPRLPRPRPRPDYFPRP | -0.209 |
| RRIRRRPPRLPRPRPRPIENPRP | -0.0103 |
| RRIRGRPPRLPRPRPRPDSWPRP | 0.627 |
| RRIRARPPRLPRPRPRPEVVPRP | 1.32 |
| RRIRYRPPRLPRPRPRPIRTPRP | -0.258 |
| RRIRCRPPRLPRPRPRPTRCPRP | 0.236 |
| RRIRRRPPRLPRPRPRPEAKPRP | 4.76 |
| RRIRERPPRLPRPRPRPGCFPRP | 0.199 |
| RRIRVRPPRLPRPRPRPMINPRP | -0.257 |
| RRIRCRPPRLPRPRPRPLLAPRP | 0.229 |
| RRIRRRPPRLPRPRPRPFRHPRP | -0.212 |
| RRIRDRPPRLPRPRPRPHSSPRP | 0.217 |
| RRIRERPPRLPRPRPRPNGSPRP | -0.263 |
| RRIRVRPPRLPRPRPRPRFWPRP | 0.64 |
| RRIRRRPPRLPRPRPRPAFWPRP | 0.547 |
| RRIRVRPPRLPRPRPRPNWRPRP | 0.4 |
| RRIRSRPPRLPRPRPRPFPMPRP | -0.264 |

| Sequence | shrunken log2 fold change |
| --- | --- |
| RRIRSRPPRLPRPRPRPNCLPRP | -0.28 |
| RRIRQRPPRLPRPRPRPCNDPRP | -0.374 |
| RRIRYRPPRLPRPRPRPFWLPRP | -0.0817 |
| RRIRIRPPRLPRPRPRPHHAPRP | 0.0597 |
| RRIRVRPPRLPRPRPRPTHIPRP | 0.268 |
| RRIRNRPPRLPRPRPRPQGVPRP | 0.0991 |
| RRIRFRPPRLPRPRPRPSRKPRP | -0.0267 |
| RRIRPRPPRLPRPRPRPALVPRP | 0.181 |
| RRIRPRPPRLPRPRPRPHFHPRP | -0.191 |
| RRIRLRPPRLPRPRPRPGFGPRP | 0.189 |
| RRIRTRPPRLPRPRPRPICKPRP | -0.0914 |
| RRIRCRPPRLPRPRPRPVKIPRP | 0.108 |
| RRIRWRPPRLPRPRPRPLYHPRP | -0.307 |
| RRIRERPPRLPRPRPRPFHVPRP | -0.854 |
| RRIRMRPPRLPRPRPRPSHQPRP | -0.0291 |
| RRIRERPPRLPRPRPRPARGPRP | 0.644 |
| RRIRTRPPRLPRPRPRPTSLPRP | -0.123 |
| RRIRPRPPRLPRPRPRPWPLPRP | 0.185 |
| RRIRFRPPRLPRPRPRPECCPRP | 0.225 |
| RRIRGRPPRLPRPRPRPKPNPRP | 1.05 |
| RRIRQRPPRLPRPRPRPPGRPRP | 0.853 |
| RRIRIRPPRLPRPRPRPPLYPRP | -0.331 |
| RRIRHRPPRLPRPRPRPVWGPRP | 0.479 |
| RRIRSRPPRLPRPRPRPSAKPRP | 2.05 |
| RRIRFRPPRLPRPRPRPQVIPRP | -0.364 |

| Sequence | shrunken log2 fold change |
| --- | --- |
| RRIRCRPPRLPRPRPRPCGLPRP | 0.0617 |
| RRIRERPPRLPRPRPRPAGMPRP | -0.0133 |
| RRIRKRPPRLPRPRPRPRHNPRP | -0.241 |
| RRIRPRPPRLPRPRPRPFFRPRP | -0.0565 |
| RRIRGRPPRLPRPRPRPITLPRP | 0.217 |
| RRIRFRPPRLPRPRPRPRTKPRP | 0.947 |
| RRIRWRPPRLPRPRPRPKAHPRP | 0.197 |
| RRIRPRPPRLPRPRPRPQWAPRP | 0.052 |
| RRIRKRPPRLPRPRPRPGTQPRP | 0.114 |
| RRIRTRPPRLPRPRPRPCIMPRP | -0.2 |
| RRIRRRPPRLPRPRPRPSHYPRP | -0.131 |
| RRIRMRPPRLPRPRPRPTNSPRP | -0.302 |
| RRIRTRPPRLPRPRPRPFPRPRP | 0.0242 |
| RRIRIRPPRLPRPRPRPHSGPRP | -0.00591 |
| RRIRVRPPRLPRPRPRPSDLPRP | -0.196 |
| RRIRWRPPRLPRPRPRPKHKPRP | 0.0536 |
| RRIRARPPRLPRPRPRPYKDPRP | -0.348 |
| RRIRKRPPRLPRPRPRPPESPRP | 0.303 |
| RRIRYRPPRLPRPRPRPQVYPRP | -0.169 |
| RRIRTRPPRLPRPRPRPQDYPRP | 0.0537 |
| RRIRARPPRLPRPRPRPGHGPRP | 0.377 |
| RRIRWRPPRLPRPRPRPYPEPRP | -0.224 |
| RRIRIRPPRLPRPRPRPPFPPRP | 0.141 |
| RRIRIRPPRLPRPRPRPQQRPRP | -0.104 |
| RRIRKRPPRLPRPRPRPCFTPRP | 0.135 |
